The values below come from patent US20230242903A1.

Among the targets are Halo-LMO2 (human) (UniProt P25791); Halo-LYL1 (human) (UniProt P12980); Halo-LYL1(F201D) (human) (UniProt P12980); Halo-TAL1 (human) (UniProt P17542); Halo-TAL1(F238D) (human) (UniProt P17542).
Experiment in all cases: cell-based or functional assay

Chain of UniProt P25791 (P25791 whole entry): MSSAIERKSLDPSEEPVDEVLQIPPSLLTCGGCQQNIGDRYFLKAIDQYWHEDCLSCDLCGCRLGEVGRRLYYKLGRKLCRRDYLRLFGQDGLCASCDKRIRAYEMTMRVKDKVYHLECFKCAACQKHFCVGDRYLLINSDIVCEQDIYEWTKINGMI

On to HA-LDB1 (from UniProt Q86U70 1-375), for which the Halo-LMO2 t1/2, HaloLife pulse chase in Jurkat cells (6.6 hours without co-expression) with Halo-LMO2 (human) amounted to 20.6 h. Moreover, the Halo-LYL1 t1/2 with HA-LDB1 co-expressed in the presence of LMO2, HaloLife assay with Halo-LYL1 (human) worked out at 20.5 h. In the test with Halo-LYL1(F201D) (human), this substance showed a Halo-LYL1(F201D) t1/2 with HA-LDB1 co-expressed, HaloLife assay of 3.7 h. Moreover, in the test with Halo-TAL1 (human), the Halo-TAL1 t1/2 with HA-LDB1 co-expressed in the presence of LMO2, HaloLife assay was determined as 19.9 h. Further, the Halo-TAL1(F238D) t1/2 with HA-LDB1 co-expressed, HaloLife assay in the test with Halo-TAL1(F238D) (human) is 10.7 h.
As for HA-LDB1ΔLID (from UniProt Q86U70 1-375), the Halo-LMO2 t1/2, HaloLife pulse chase in Jurkat cells (6.6 hours without co-expression) with Halo-LMO2 (human) came to 4 h.
